Reference: publication PMC11865472
Where a chain is given by its changes, count along the chain named. Numbers in names are those of the source. One block for each binder: values may come before it.

Key:
[1] = target: T1, rat betaglycan ZP-C domain (BG_(ZP-C)), mammalian-expressed; test: SPR; settings: chain shown with the change; analyte: BGZP-C; parent: est. 95; read off a plot
T1 chain: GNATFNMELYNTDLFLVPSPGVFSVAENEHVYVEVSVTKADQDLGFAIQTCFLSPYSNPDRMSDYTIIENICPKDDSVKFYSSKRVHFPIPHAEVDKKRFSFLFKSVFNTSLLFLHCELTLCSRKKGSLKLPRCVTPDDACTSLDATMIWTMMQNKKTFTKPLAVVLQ

[2] = target: T2, TGF-β2 (growth factor domain, wild type) (human); test: SPR; TGF-β2 immobilised on the chip surface; ratBGO, zfBGO, ratBGO-zfBL or ratBGO-Y248A injected, 2-fold dilution series 500 - 31.3 nM; three consecutive repeats
T2 sequence (P61812 303-414, looked up): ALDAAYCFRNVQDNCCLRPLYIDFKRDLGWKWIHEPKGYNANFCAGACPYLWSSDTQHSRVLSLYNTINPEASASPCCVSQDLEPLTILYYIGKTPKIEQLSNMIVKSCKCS

[3] = target: T3, inhibin A (InhA), mature heterodimer, unlabelled, P05111;P08476; test: SPR; settings: chain shown with the change
T3 chain 1: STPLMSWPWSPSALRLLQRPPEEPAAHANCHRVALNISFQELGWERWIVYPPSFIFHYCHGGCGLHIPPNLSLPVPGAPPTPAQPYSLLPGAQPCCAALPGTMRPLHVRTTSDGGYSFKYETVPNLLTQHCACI
T3 chain 2: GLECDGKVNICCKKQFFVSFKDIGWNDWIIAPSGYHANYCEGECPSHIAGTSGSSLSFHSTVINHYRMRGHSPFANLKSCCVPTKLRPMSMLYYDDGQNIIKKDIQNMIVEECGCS

[4] = target: T2, TGF-β2 (growth factor domain, wild type) (human); test: SPR; BIAcore T200; TGF-β2 WT or TGF-β2 mutants amine-coupled (EDC-NHS) to a CM4 chip, max 400 RU; zfBGO WT or BGZP-C WT injected, 2-fold dilution series 250 - 15.6 nM; 10 mM CHES, 150 mM NaCl, 3 mM EDTA, 0.01% P20, pH 8.0; 100 µl/min; 1:1 kinetic model with drift; three consecutive repeats
[5] = target: TGF-β2 (Q57A, K60A, L64A) (human); test: as above
[6] = target: TGF-β2 (Y50A, L51A) (human); test: as above
[7] = surface: InhA, parent: est. 1100 nM, read off a plot

Kd [1]: 110 nM
B1: TGF-β2 homodimer (growth factor domain), unlabelled Y50A; L51A (protein)
chain: T2 sequence (P61812 303-414, looked up) with Y50A, L51A

Kd [2]: 72 nM
B2: rat betaglycan orphan domain (ratBGO), wild type (domain or fragment)
chain: CELSPINASHPVQALMESFTVLSGCASRGTTGLPREVHVLNLRSTDQGPGQRQREVTLHLNPIASVHTHHKPIVFLLNSPQPLVWHLKTERLAAGVPRLFLVSEGSVVQFPSGNFSLTAETEERNFPQENEHLLRWAQKEYGAVTSFTELKIARNIYIKVGEDQVFPPTCNIGKNFLSLNYLAEYLQPKAAEGCVLPSQPHEKEVHIIELITPSSNPYSAFQVDIIVDIRPAQEDPEVVKNLVLILKCKKSVNWVIKSFDVKGNLKVIAPNSIGFGKESERSMTMTKLVRDDIPSTQENLMKWALDNGYRPVTSYTMAPVANRFHLRLEN

Kd [2]: 102 nM
B3: ratBGO-Y248A (domain or fragment)
chain: B2 chain with Y218A

Kd [3, 7]: 850 nM
B4: rat betaglycan ZP-C domain (BG_(ZP-C)), mammalian-expressed N82Y (protein)
chain: T1 chain with N70Y

Kd ([3]; 500 - 15.6 nM, 2-fold dilution series): 1810 nM
Kd [3, 7]: 1800 nM
B5: rat betaglycan ZP-C domain (BG_(ZP-C)), mammalian-expressed A158E (protein)
chain: T1 chain with A146E

Kd [4]: 95 nM
Kd [5]: 99 nM
Kd [6]: 113 nM
B6: rat betaglycan ZP-C domain (BGZP-C), wild type (domain or fragment)
chain: T1 chain
